Drawing on publication PMC4275271, “Development and Characterization of a Novel Fusion Protein of a Mutated Granulocyte Colony-Stimulating Factor and Human Serum Albumin in Pichia pastoris” (PLoS ONE, 2014), this text covers Kd, koff and kon for 2 molecules.

The experiment deals with T1, recombinant human G-CSF receptor (rhG-CSFR), biotinylated (human, UniProt Q99062 25-627, biotin (biotinylated, site not stated)).
T1 construct: human granulocyte colony-stimulating factor receptor
T1 sequence (looked up): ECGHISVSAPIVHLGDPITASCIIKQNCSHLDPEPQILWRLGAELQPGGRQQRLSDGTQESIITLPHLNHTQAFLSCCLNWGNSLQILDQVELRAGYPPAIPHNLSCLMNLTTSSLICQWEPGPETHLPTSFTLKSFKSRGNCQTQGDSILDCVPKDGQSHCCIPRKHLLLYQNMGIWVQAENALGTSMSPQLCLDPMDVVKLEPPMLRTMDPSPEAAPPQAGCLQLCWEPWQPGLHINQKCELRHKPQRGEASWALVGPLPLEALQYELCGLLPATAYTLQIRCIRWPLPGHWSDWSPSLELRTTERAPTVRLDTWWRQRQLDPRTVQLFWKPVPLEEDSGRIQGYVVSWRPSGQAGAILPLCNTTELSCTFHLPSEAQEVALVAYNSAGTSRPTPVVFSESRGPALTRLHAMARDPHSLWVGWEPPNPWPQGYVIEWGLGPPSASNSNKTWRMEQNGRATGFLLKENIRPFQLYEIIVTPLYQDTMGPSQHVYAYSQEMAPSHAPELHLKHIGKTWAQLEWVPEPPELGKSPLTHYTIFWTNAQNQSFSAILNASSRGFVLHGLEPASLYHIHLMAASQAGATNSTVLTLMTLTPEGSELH
Put plainly: BLI; biotinylated rhG-CSFR (15 µg/ml) on Streptavidin High Binding biosensors, Octet-QK; HMG, rhG-CSF standard or mG-CSF in solution; global fitting. The note with it: both partners purified.

B1: Human G-CSF mutant (mG-CSF) (ligand, UniProt P09919-2 31-204, looked up)
chain: APTYRASSLPQSFLLKSLEQVRKIQGDGAALQEKLCATYKLCHPEELVLLGHSLGIPWAPLSSCPSQALQLAGCLSQLHSGLFLYQGLLQALEGISPELGPTLDTLQLDVADFATTIWQQMEELGMAPALQPTQGAMPAFASAFQRRAGGVLVASHLQSFLEVSYRVLRHLAQP
notes: human granulocyte colony-stimulating factor with five substitutions; also called mutated G-CSF
Broadly, the Kd is the concentration at which binding is half-saturated. By koff is commonly meant the first-order rate constant of dissociation. What is called kon is the rate constant with which the complex forms. For B1, the Kd turned out to be 1.2 nM, the koff was found to be 1.94e-05 s⁻¹ and the kon is 16200 M⁻¹ s⁻¹.

B2: recombinant human G-CSF (rhG-CSF) standard (ligand, UniProt P09919-2 31-204, looked up)
chain: TPLGPASSLPQSFLLKCLEQVRKIQGDGAALQEKLCATYKLCHPEELVLLGHSLGIPWAPLSSCPSQALQLAGCLSQLHSGLFLYQGLLQALEGISPELGPTLDTLQLDVADFATTIWQQMEELGMAPALQPTQGAMPAFASAFQRRAGGVLVASHLQSFLEVSYRVLRHLAQP
notes: human granulocyte colony-stimulating factor, rhG-CSF standard of Amgen; Amgen's rhG-CSF is recalled to be the 174-residue mature form with an added N-terminal Met (filgrastim); also called recombinant hG-CSF standard; source: bought: Amgen, USA
Regarding B2, the Kd was 1.97 nM, the koff amounted to 2.24e-05 s⁻¹ and the kon was 11400 M⁻¹ s⁻¹.
